The record followed here is paper PMC12013513, “Anillin mediates unilateral furrowing during cytokinesis by limiting RhoA binding to its effectors” (The Journal of Cell Biology, 2025).

The target in assay [1] is T1, GST-ANI-1^C-term (681-1159 AA) (C. elegans, UniProt Q9XTT4 681-1159).
T1 construct: ANI-1 (anillin homolog), C. elegans, residues 681-1159 comprising the RBD, C2 region and PH domain; Cloned into pGEX-4T; used on the beads directly in the pull-down; also called GST-tagged C-terminus of ANI-1; anillin C-terminus; source: E. coli BL21 (DE3), purified on Glutathione Sepharose 4B beads
T1 sequence (looked up): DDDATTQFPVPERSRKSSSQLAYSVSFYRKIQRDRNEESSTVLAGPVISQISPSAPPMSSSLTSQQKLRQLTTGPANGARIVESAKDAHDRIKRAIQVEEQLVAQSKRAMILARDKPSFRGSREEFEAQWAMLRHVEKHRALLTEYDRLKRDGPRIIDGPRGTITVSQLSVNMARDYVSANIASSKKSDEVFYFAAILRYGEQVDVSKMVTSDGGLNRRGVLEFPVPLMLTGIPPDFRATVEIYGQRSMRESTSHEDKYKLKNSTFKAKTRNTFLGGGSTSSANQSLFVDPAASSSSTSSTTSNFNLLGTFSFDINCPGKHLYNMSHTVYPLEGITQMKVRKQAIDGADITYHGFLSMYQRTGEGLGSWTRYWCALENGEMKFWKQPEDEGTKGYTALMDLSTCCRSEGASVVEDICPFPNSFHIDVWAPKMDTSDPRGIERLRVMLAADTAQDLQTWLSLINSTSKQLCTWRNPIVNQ
In words: pull-down; ~4 μg GST-ANI-1 fragment on Glutathione Sepharose beads mixed with ~4 μg purified 10xHis-RHO-1 in 300 μl binding buffer (20 mM Tris pH 7.4, 150 mM NaCl, 5 mM MgCl2, 0.1% Triton X-100, 1 mM DTT) with 1 mM GTP, 4°C, 1.5 h; bound RHO-1 detected by anti-His immunoblot. To be noted: both partners purified. For orientation: Immunoblotting shows a protein as a band on a membrane.

Assay [2] concerns the target T2, GST-ANI-1^Link+C-term (460-1159 AA) (C. elegans, UniProt Q9XTT4 460-1159).
T2 construct: ANI-1 (anillin homolog), C. elegans, residues 460-1159: linker region, RBD, C2 region and PH domain; Cloned into pGEX-4T; used on the beads directly in the pull-down; also called protein consisting of the linker region and C-terminus; source: E. coli BL21 (DE3), purified on Glutathione Sepharose 4B beads
T2 sequence (looked up): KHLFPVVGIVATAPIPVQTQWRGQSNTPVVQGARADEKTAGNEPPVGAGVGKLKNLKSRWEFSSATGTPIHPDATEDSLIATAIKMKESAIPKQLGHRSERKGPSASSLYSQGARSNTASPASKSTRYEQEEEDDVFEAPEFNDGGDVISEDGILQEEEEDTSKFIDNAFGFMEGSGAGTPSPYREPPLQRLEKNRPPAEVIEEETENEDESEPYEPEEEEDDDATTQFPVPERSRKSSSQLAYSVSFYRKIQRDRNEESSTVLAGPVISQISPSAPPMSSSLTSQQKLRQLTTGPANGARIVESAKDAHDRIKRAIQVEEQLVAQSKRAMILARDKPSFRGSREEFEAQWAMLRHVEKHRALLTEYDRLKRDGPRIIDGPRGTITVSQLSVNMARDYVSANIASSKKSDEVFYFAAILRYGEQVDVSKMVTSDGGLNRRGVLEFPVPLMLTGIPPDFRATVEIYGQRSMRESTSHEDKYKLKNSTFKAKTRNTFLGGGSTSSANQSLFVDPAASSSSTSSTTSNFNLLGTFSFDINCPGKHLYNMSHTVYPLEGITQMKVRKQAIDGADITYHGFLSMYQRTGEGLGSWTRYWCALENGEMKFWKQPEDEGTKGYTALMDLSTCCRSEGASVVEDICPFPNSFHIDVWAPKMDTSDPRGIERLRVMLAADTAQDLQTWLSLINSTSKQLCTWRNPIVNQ
The description is as above. To be noted: both partners purified.

B1: 10xHis-RHO-1^WT (wild type RHO-1, 1-188 AA) (domain or fragment)
chain: not shown
notes: RHO-1 (RhoA in humans), C. elegans, residues 1-188 (without the CAAX motif), amplified from cDNA; Cloned into pET-19b; also called His-tagged RHO-1; RhoA; source: E. coli BL21 (DE3), purified (Ni-NTA)
As for B1, the binding result in assay [1] is “binds”.

B2: 10xHis-RHO-1^Q63L (constitutively active RHO-1, 1-188 AA) (domain or fragment)
chain: not shown
notes: RHO-1 (RhoA in humans), C. elegans, residues 1-188, with Q63L made by site-directed mutagenesis of the wild type construct; Cloned into pET-19b; source: E. coli BL21 (DE3), purified (Ni-NTA)
For the molecule B2, the binding result in assay [1] and in assay [2] was “binds” each time.
